Experimental data as given in publication PMC6399207.
Where “and” joins values, the source holds several entries; their conditions need not be identical. Equal entries are not always repeated.

Tests used:
[1] = target: Acinetobacter baumannii glutamyl-tRNA reductase (HemA), N-terminal His-tagged (Acinetobacter baumannii (strain ATCC 19606)); test: SEC; sample of AbHemA and AbHemL co-expressed (pET28hemL_(6xHis)-hemA_(6xHis)) and co-purified on NiNTA; Superdex 200 10/300 GL, room temperature, 0.5 mL/min, 50 mM Na phosphate pH 8.0, 100 mM NaCl; fractions checked by SDS-PAGE; also after 16 h at 4°C without or with 0.1 M sodium citrate, and of a sample grown and purified with citrate
[2] = target: Acinetobacter baumannii glutamate-1-semialdehyde-2,1-aminomutase (HemL), N-terminal His-tagged (Acinetobacter baumannii (strain ATCC 19606)); test: SEC; individually purified protein alone; Superdex 200 10/300 GL, room temperature, 50 mM Na phosphate pH 8.0, 100 mM NaCl; calibrated with ferritin, aldolase, conalbumin, ovalbumin
[3] = target: Acinetobacter baumannii glutamyl-tRNA reductase (HemA), N-terminal His-tagged (Acinetobacter baumannii (strain ATCC 19606)); test: as above

fold increase of the 200 kDa complex fraction with 0.1 M sodium citrate against without citrate [1] | stoichiometry N [2] | stoichiometry N [3] | Substance
4 fold | 2 |  | Acinetobacter baumannii glutamate-1-semialdehyde-2,1-aminomutase (HemL), N-terminal His-tagged (enzyme)
 |  | 4 and 2 | Acinetobacter baumannii glutamyl-tRNA reductase (HemA), N-terminal His-tagged (enzyme)
